Data published in the supplement of paper PMC7125110.
± gives the standard error. For some assays here: Variants at the floor of the assay were thinned out.

B1: glmS ribozyme (parent)
chain: AUAAAAGCGCCAGAACUACAGAAAUGUAGUUGACGAGGAGGAGGUUUAUCGAAUUUUCGGCGGAUGCCUCCAAA

Assays:
Details in all cases: with glucosamine-6-phosphate
glucosamine-6-phosphate [1] = variants of: B1; test: kcat; higher = faster cleavage; RNA array
Outline: (§1)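 kcat and KM were obtained from weighted Michaelis–Menten fits across concentrations of kobs values. Those came from one- or two-exponential decay fits to per-tile medians normalised to baseline and to non-cleaving reference variants. The variants were barcoded ribozymes transcribed in situ by E. coli RNA polymerase on sequenced MiSeq chips and tracked through a hybridised Cy3 probe at 37 °C, with 40 μM to 10 mM glucosamine-6-phosphate in HEPES/KCl/Mg(OAc)2 buffer flowed in.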

glucosamine-6-phosphate [2] = variants of: B1; test: KM; higher = weaker cofactor use; RNA array
Outline: as §1

glucosamine-6-phosphate [3] = variants of: B1; test: self-cleavage kobs at 160 uM GlcN6P; higher = faster cleavage; RNA array
Outline: as §1

glucosamine-6-phosphate [4] = variants of: B1; test: self-cleavage kobs at 640 uM GlcN6P; higher = faster cleavage; RNA array
Outline: as §1

glucosamine-6-phosphate [5] = variants of: B1; test: self-cleavage kobs at 2500 uM GlcN6P; higher = faster cleavage; RNA array
Outline: as §1

glucosamine-6-phosphate [6] = variants of: B1; test: self-cleavage kobs at 10000 uM GlcN6P; higher = faster cleavage; RNA array
Outline: as §1

glucosamine-6-phosphate [7] = variants of: B1; test: self-cleavage kobs at 40 uM GlcN6P; higher = faster cleavage; RNA array
Outline: as §1

Variant	kcat (glucosamine-6-phosphate [1]) [s⁻¹]	KM (glucosamine-6-phosphate [2]) [µM]	self-cleavage kobs at 160 uM GlcN6P (glucosamine-6-phosphate [3]) [s⁻¹]	self-cleavage kobs at 640 uM GlcN6P (glucosamine-6-phosphate [4]) [s⁻¹]	self-cleavage kobs at 2500 uM GlcN6P (glucosamine-6-phosphate [5]) [s⁻¹]	self-cleavage kobs at 10000 uM GlcN6P (glucosamine-6-phosphate [6]) [s⁻¹]	self-cleavage kobs at 40 uM GlcN6P (glucosamine-6-phosphate [7]) [s⁻¹]
A48U C70U	0.000821 ± 0.00021	2160 ± 900	5.07e-05 ± 8e-06	0.000334 ± 5.5e-05	0.000416 ± 6.2e-05	0.000671 ± 9.3e-05	–
G38A U47G C71G	1.15e-05 ± 1.8e-06	–	–	–	–	–	–
G44U A53U	0.000149 ± 2.2e-05	–	–	–	0.00015 ± 6e-05	0.000129 ± 1e-05	–
A12G C71G	0.000425 ± 2.2e-05	4400 ± 370	–	5.45e-05 ± 6.3e-06	0.00015 ± 1.6e-05	0.000298 ± 3.1e-05	–
C16U U65A	0.00359 ± 0.00068	2370 ± 610	0.000189 ± 2.9e-05	0.000817 ± 0.00011	0.00193 ± 0.00025	0.00276 ± 0.00049	7.34e-05 ± 1.2e-05
U46G U56C	0.00203 ± 0.0005	4990 ± 2300	4.23e-05 ± 2.1e-05	–	0.000799 ± 0.00013	0.00131 ± 0.00016	–
U46G U56G	0.00393 ± 0.00066	1690 ± 350	0.000353 ± 0.00012	0.00128 ± 0.00033	0.00271 ± 0.00083	0.0029 ± 0.001	8.55e-05 ± 1.5e-05
U46A C71G	0.00042 ± 3.7e-05	2020 ± 370	4.33e-05 ± 1.2e-05	9.39e-05 ± 1.2e-05	0.00025 ± 3.5e-05	0.000346 ± 3.2e-05	–
A14C G44A	0.000834 ± 0.00022	–	–	–	–	4.02e-05 ± 1.1e-05	< 1e-05
A6C A14C	1.13e-05 ± 5.2e-07	5840 ± 600	–	–	–	–	–
G32A U54G	0.00257 ± 0.00027	2600 ± 410	0.000162 ± 2.6e-05	0.000536 ± 5.3e-05	0.00121 ± 0.00012	0.00207 ± 0.00024	3.07e-05 ± 7.9e-06
A14C G32C	0.000467 ± 2.4e-05	5350 ± 480	–	4.87e-05 ± 1.2e-05	0.000149 ± 2.1e-05	0.000304 ± 3.5e-05	–
A6G A15U	7.69e-05 ± 9.2e-06	–	–	2.52e-05 ± 1e-05	7.01e-05 ± 1.2e-05	6.82e-05 ± 6.2e-06	< 1e-05
G29C A33C	< 1e-05	–	–	< 1e-05	–	–	–
A33C U55G	0.000433 ± 0.00012	2970 ± 1400	–	9.32e-05 ± 1.6e-05	0.000163 ± 2.8e-05	0.000384 ± 6.3e-05	–
A42U G43U A52G	< 1e-05	–	–	–	< 1e-05	–	–
